PMC6695731, “Application of a Substrate-Mediated Selection with c-Src Tyrosine Kinase to a DNA-Encoded Chemical Library” (Molecules, 2019)
Read-outs that look alike come from different tables or passages of the source.

Experiments:
[1] = biological target: T1, c-Src (Homo sapiens, UniProt P12931); assay: ADP-Glo assay of compounds as c-Src substrates (ADP production); format: biochemical; details: for Km / Vmax: Table S3, ADP-Glo assay of SrcDEL10 derivatives, enzyme Src; for activity as substrate in ADP-Glo assay (words): SrcDEL10 derivatives compared with parental compound
Description: (§1) Hit molecules were initially characterized as substrates for c-Src using the luciferase-based ADP-Glo assay (Promega). All six molecules appeared to be efficient substrates for Src kinase.
(§2) Kinase reaction was performed as follows 1x kinase buffer (25 mM Tris-HCl (pH 7.5), 2 mM dithiothreitol (DTT), 0.1 mM Na3VO4, 10 mM MgCl2), 1 mM ATP, different concentrations (1 μM to 100 μM) of substrates (either off DNA or on DNA hit molecules), and 12 nM rSrc by incubation for 2 h at 30 °C. After that, distinct 55mers were annealed to each kinase reaction, as previously described. The annealed reactions were incubated with anti Pho-Tyr loaded protein G magnetic bead at RT for 30 min. After washing by three times 20 μL 1xPBST with 1 mg/mL BSA, 1 mg/mL tRNAs), the captured samples were eluted by 20 μL of 1 mM phenylphosphate. The resulting supernatant was then used as a template in qPCR.
(§3) After the kinase reaction was performed as previous section, the reaction mixture (5 μL) was incubated with 5 µL of ADP-Glo™ reagent at RT for 40 min and then add 10 µL of kinase detection reagent at RT for 1 h. The luminescence was measure by plate reader.

[2] = biological target: T1, c-Src; assay: NADH-based coupled enzyme assay detecting ADP generation; format: biochemical; details: 1 mM ATP, 100 µM compound, 12 nM Src, 30 °C, 3 h
Description: To confirm this, compounds were tested with an NADH-based, coupled enzyme assay that also detects ADP generation. […] This additionally supported that the ADP-Glo activity observed was due to activation of ATP hydrolysis and not phosphotransfer to these compounds.
Kinase reaction was performed as follows 1x kinase buffer (25 mM Tris-HCl (pH 7.5), 2 mM dithiothreitol (DTT), 0.1 mM Na3VO4, 10 mM MgCl2), 1 mM ATP, 100 μM peptides and 12 nM Src at 30 °C for 3 h. The kinase reaction mixture was incubated with 30 unit/mL lactic dehydrogenase (LDH), 20 unit/mL pyruvate kinase (PK), 2 mM phosphoenolpyruvate (PEP), and 1 mM NADH. The absorbance of NADH was monitored at 340 nm.
Figure S8. NADH Coupled Assay of Hit Molecules with c-Src. Samples were composed of 1 mM ATP,
100 µM putative substrate molecules, and 12 nM c-Src kinase at 30 C for 3 hours. Full method description
is provided in Methods and Materials 4.6 NADH assay.

[3] = test system: C[C@H](NC(=O)c1ccc(CN(CC2CC2)C(=O)CCO)cc1)C(=O)N(CCc1ccc(O)cc1)CC(N)=O; assay: ADP-Glo assay of compounds as c-Src substrates (ADP production); format: biochemical; details: other: Table S3, ADP-Glo assay of SrcDEL10 derivatives, enzyme Src; pH 7.5; 30.0 °C
Description: as §1, §2, §3

[4] = test system: N=C(N)NCCC[C@H](NC(=O)CN(Cc1ccco1)C(=O)CCO)C(=O)N(CCc1ccc(O)cc1)Cc1ccc(C(N)=O)cc1; assay: as above; format: biochemical; details: other: ADP-Glo assay, compound as substrate of c-Src; pH 7.5; 30.0 °C
Description: as §1, §2, §3

[5] = test system: NC(=O)C(Cc1ccc(O)cc1)NC(=O)CN(CCCCCCO)C(=O)C1Cc2ccccc2N1C(=O)CCc1ccc(O)cc1; assay: as above; format: biochemical; details: other: ADP-Glo assay, compound as substrate of c-Src; pH 7.5; 30.0 °C
Description: as §1, §2, §3

[6] = test system: NC(=O)C(Cc1cccnc1)NC(=O)CN(CCc1ccc(O)cc1)C(=O)C1Cc2c([nH]c3ccccc23)CN1C(=O)CCO; assay: as above; format: biochemical; details: other: ADP-Glo assay, compound as substrate of c-Src; pH 7.5; 30.0 °C
Description: as §1, §2, §3

[7] = test system: NC(=O)C1Cc2ccc(O)cc2CN1C(=O)C(CC(=O)O)NC(=O)c1ccc(CN(CC2CC2)C(=O)CCO)cc1; assay: as above; format: biochemical; details: other: Table S3, ADP-Glo assay of SrcDEL10 derivatives, enzyme Src; pH 7.5; 30.0 °C
Description: as §1, §2, §3

[8] = test system: NC(=O)CN(CCCCCCO)C(=O)c1ccc(CNC(=O)[C@H](Cc2ccc(O)cc2)NC(=O)CCc2ccc(O)cc2)cc1; assay: as above; format: biochemical; details: other: ADP-Glo assay, compound as substrate of c-Src; pH 7.5; 30.0 °C
Description: as §1, §2, §3

[9] = test system: NC(=O)CN(CCc1ccc(O)cc1)C(=O)[C@H](CC(=O)O)NC(=O)c1ccc(CN(CC2CC2)C(=O)CCO)cc1; assay: as above; format: biochemical; details: other: ADP-Glo assay, compound as substrate of c-Src; pH 7.5; 30.0 °C
Description: as §1, §2, §3

[10] = test system: NC(=O)CN(CCc1ccc(O)cc1)C(=O)[C@H](CC(=O)O)NC(=O)c1cccc(CN(CC2CC2)C(=O)CCO)c1; assay: as above; format: biochemical; details: other: Table S3, ADP-Glo assay of SrcDEL10 derivatives, enzyme Src; pH 7.5; 30.0 °C
Description: as §1, §2, §3

[11] = test system: NC(=O)CN(CCc1ccc(O)cc1)C(=O)[C@H](CCC(=O)O)NC(=O)c1ccc(CN(CC2CC2)C(=O)CCO)cc1; assay: as above; format: biochemical; details: other: Table S3, ADP-Glo assay of SrcDEL10 derivatives, enzyme Src; pH 7.5; 30.0 °C
Description: as §1, §2, §3

[12] = test system: NC(=O)CN(CCc1ccccc1)C(=O)[C@H](CC(=O)O)NC(=O)c1ccc(CN(CC2CC2)C(=O)CCO)cc1; assay: as above; format: biochemical; details: pH 7.5, 30.0 °C
Description: as §1, §2, §3

[13] = test system: NC(=O)[C@H](Cc1ccc(O)cc1)NC(=O)[C@H](CC(=O)O)NC(=O)c1ccc(CN(CC2CC2)C(=O)CCO)cc1; assay: as above; format: biochemical; details: other: Table S3, ADP-Glo assay of SrcDEL10 derivatives, enzyme Src; pH 7.5; 30.0 °C
Description: as §1, §2, §3

[14] = test system: NC(=O)[C@H](Cc1cccnc1)NC(=O)CN(CC1CC1)C(=O)CCc1ccc(O)cc1; assay: as above; format: biochemical; details: other: ADP-Glo assay, compound as substrate of c-Src; pH 7.5; 30.0 °C
Description: as §1, §2, §3

[15] = test system: O=C(O)C[C@H](NC(=O)c1ccc(CN(CC2CC2)C(=O)CCO)cc1)C(=O)NCCc1ccc(O)cc1; assay: as above; format: biochemical; details: other: Table S3, ADP-Glo assay of SrcDEL10 derivatives, enzyme Src; pH 7.5; 30.0 °C
Description: as §1, §2, §3

[16] = biological target: T1, c-Src; assay: radiolabel (32P-ATP) inhibition assay of LYNtide phosphorylation by c-Src; format: biochemical; details: 32P-ATP 50 µM, biotinylated-LYNtide 50 µM
Description: The original six off-DNA hits were tested for inhibition of c-Src activity. For these tests, we used ^32P-ATP as a substrate and detected phosphorylation levels of a biotinylated-LYNtide substrate after adsorption to streptavidin coated membranes. This assay should not be affected by activation of ATP hydrolysis or phosphotransfer to the small molecules. […] There was no apparent correlation of these values to the Km or kcat values in the prior assays as substrates.
Each hit molecule was preincubated with 1.2 nM c-Src at 30 °C for 30 min. The kinase reaction was initiated with the addition of 50 μM LYNtide and 50 μM ATP with 0.15 μCi gamma ^32P ATP at 30 °C for 10 min. The kinase reaction samples (2 µL) were spotted on P81 filter paper consisting of 1.5 cm squares. After air dry, the P81 papers were washed 4 times with 0.5% phosphoric acid for 5 min each. The P81 papers were washed one time with acetone for 5 min. The papers were then allowed to air dry for about 20 min. The dried P81 papers were analyzed by liquid scintillation counter.
Figure 6 Inhibition of hit molecules in a radiolabel assay with ^32P-ATP (50 µM) and biotinylated-LYNtide (50 µM) as substrates.

[17] = test system: c-Src; details: cited from earlier work
[18] = other: Table S3, ADP-Glo assay of SrcDEL10 derivatives, enzyme Src
[19] = c-Src substrates lacking acidic residues, Lam and coworkers
[20] = optimal natural peptide sequence for c-Src, reference not given

CC(=O)N(Cc1ccc(C(=O)N[C@@H](CC(=O)O)C(=O)N(CCc2ccc(O)cc2)CC(N)=O)cc1)CC1CC1 [Src 10-9]
Km [1]: > 100 µM

NC(=O)[C@H](Cc1cccnc1)NC(=O)CN(CC1CC1)C(=O)CCc1ccc(O)cc1 [SrcDEL21]
ADP generation relative to compound [2]: large molar excess

c-Src (Homo sapiens)
Km [3]: 4.31 µM | kcat [3]: 41 min⁻¹ | kcat/Km [3]: 9. 52 1/min/uM | Km [4]: 19 µM | kcat [4]: 2.5 s⁻¹ | kcat/Km [4]: 130000 M⁻¹ s⁻¹ | Km [5]: 18 µM | kcat [5]: 0.533 s⁻¹ | kcat/Km [5]: 30000 M⁻¹ s⁻¹ | Km [6]: 33 µM | kcat [6]: 5.83 s⁻¹ | kcat/Km [6]: 183000 M⁻¹ s⁻¹ | Km [7]: 15.4 µM | kcat [7]: 122. 8 1/min | kcat/Km [7]: 7. 95 1/min/uM | Km [8]: 13 µM | kcat [8]: 0.75 s⁻¹ | kcat/Km [8]: 55000 M⁻¹ s⁻¹ | Km [9]: 18 µM | kcat [9]: 1.37 s⁻¹ | kcat/Km [9]: 76700 M⁻¹ s⁻¹ | Km [10]: 9.68 µM | kcat [10]: 44. 66 1/min | kcat/Km [10]: 4. 61 1/min/uM | Km [11]: 20.7 µM | kcat [11]: 92. 84 1/min | kcat/Km [11]: 4. 49 1/min/uM | kcat/Km ([12]; other: ADP-Glo assay): 6.9 min⁻¹ µM⁻¹ | Km [12, 18]: 21.1 µM | kcat [12, 18]: 144. 9 1/min | kcat/Km [12, 18]: 6. 86 1/min/uM | Km [13]: 4.37 µM | kcat [13]: 89. 33 1/min | kcat/Km [13]: 20. 56 1/min/uM | Km [14]: 28 µM | kcat [14]: 1.43 s⁻¹ | kcat/Km [14]: 50000 M⁻¹ s⁻¹ | Km [15]: 3.79 µM | kcat [15]: 24. 21 1/min | kcat/Km [15]: 6. 39 1/min/uM

O=C(O)C[C@H](NC(=O)c1ccc(CN(CC2CC2)C(=O)CCO)cc1)C(=O)NCCc1ccc(O)cc1 [Src 10-3]
Vmax [1]: 0.382 µM/min

NC(=O)C(Cc1ccc(O)cc1)NC(=O)CN(CCCCCCO)C(=O)C1Cc2ccccc2N1C(=O)CCc1ccc(O)cc1 (centres unmarked) [SrcDEL16]
ADP generation relative to compound [2]: little turnover | IC50 [16]: 26 µM

NC(=O)CN(CCc1ccc(O)cc1)C(=O)[C@H](CC(=O)O)NC(=O)c1cccc(CN(CC2CC2)C(=O)CCO)c1 [Src 10-4]
Vmax [1]: 0.54 µM/min

C[C@H](NC(=O)c1ccc(CN(CC2CC2)C(=O)CCO)cc1)C(=O)N(CCc1ccc(O)cc1)CC(N)=O [Src 10-2]
Vmax [1]: 0.492 µM/min

GIYWHHY [efficient c-Src peptide substrate lacking acidic residues]
Km [17, 19]: 21 µM

NC(=O)C(Cc1cccnc1)NC(=O)CN(CCc1ccc(O)cc1)C(=O)C1Cc2c([nH]c3ccccc23)CN1C(=O)CCO (centres unmarked) [SrcDEL5]
ADP generation relative to compound [2]: large molar excess | IC50 [16]: 64 µM

CCCN(Cc1ccc(C(=O)N[C@@H](CC(=O)O)C(=O)N(CCc2ccc(O)cc2)CC(N)=O)cc1)C(=O)CCO [Src 10-8]
activity as substrate in ADP-Glo assay (words) ([1]; listed as 10–8): lacked activity altogether | activity as substrate in ADP-Glo assay (words) ([1]; listed as Src-10-8): No activity | Km [1]: > 100 µM

N=C(N)NCCC[C@H](NC(=O)CN(Cc1ccco1)C(=O)CCO)C(=O)N(CCc1ccc(O)cc1)Cc1ccc(C(N)=O)cc1 [SrcDEL8]
ADP generation relative to compound [2]: large molar excess | IC50 [16]: 96 µM

YIYGSFK [efficient c-Src peptide substrate lacking acidic residues]
Km [17, 19]: 55 µM

NC(=O)CN(CCCCCCO)C(=O)c1ccc(CNC(=O)[C@H](Cc2ccc(O)cc2)NC(=O)CCc2ccc(O)cc2)cc1 [SrcDEL14]
ADP generation relative to compound [2]: little turnover | IC50 [16]: 18 µM

EEEIYGIFG
Km [17, 20]: 14 µM | kcat [17, 20]: 2.9 s⁻¹

NC(=O)CN(Cc1cccc(O)c1)C(=O)[C@H](CC(=O)O)NC(=O)c1ccc(CN(CC2CC2)C(=O)CCO)cc1 [Src 10-10]
Km [1]: > 100 µM

NC(=O)CN(CCc1ccccc1)C(=O)[C@H](CC(=O)O)NC(=O)c1ccc(CN(CC2CC2)C(=O)CCO)cc1 [Src 10-6]
activity as substrate in ADP-Glo assay (words) [1]: comparable substrate to the parental compound
